Reference: patent publication US20250235501A1, “Methods and Compositions for Treating or Preventing Neurological Injury or Neurological Disorders” (University of Connecticut, priority 2024, published 2025)

Legend:
[1] = target: T1, TRPM2 interaction with GluN2a (Rattus norvegicus, UniProt Q00959); assay: Co-IP of TRPM2 with GluN2a in co-transfected HEK293T cells; type: cell-based, human; details: 10 μM peptide overnight; IP anti-GluN2a, WB anti-Flag
T1 construct: TRPM2 plasmid a gift 17928; 17924; 17925; host or cells: HEK293T
Experimental: (§1) FIGS. 5A and 5B show the effects of TAT-EE3 on interaction of TRPM2 and NMDARs. Co-IP tests of NMDARs with WT or EE3 domain mutants of TRPM2 (Flag-tagged) in co-transfected HEK293T cells. WT TRPM2 groups were treated with 10 μM TAT-SC or TAT-EE3 overnight. Lysates were IP's with anti-GluN2a (FIG. 5A) or anti-GluN2b (FIG. 5B), and probed by WBs with anti-Flag. IgG was used as control for IP. Similar to the mutants TRPM2-ΔEE3 and TRPM2-EQE, TAT-EE3 disrupted TRPM2 interaction with GluN2a and GluN2b.
(§2) were ordered from GenScript Biotech, and dissolved in PBS to make a stock concentration at 10 mM. HEK-293T cells or isolated neurons were treated with TAT-SC or TAT-EE3 at a concentration of 10 μM for at least 8 h prior to use. Mice were injected with TAT-SC or TAT-EE3 intraperitoneally (ip) at a dose of 100 nmol/kg. […]
(§3) NP-40 lysis buffer ([…], 150 mM NaCl, 1 mM EDTA, 50 mM Tris, pH=8.0) containing proteinase inhibitors (Sigma-Aldrich, 539131-10VL) and phosphatase inhibitors (Thermal Fisher Scientific, 78428) was used to lyse both cultured cells and frozen brain tissue. […] Protein concentration was measured using Pierce™ Rapid Gold BCA Protein Assay Kit (Thermal Fisher Scientific, A53225). […] Then samples were ready for western blotting analysis.

[2] = target: T2, TRPM2 interaction with GluN2b (Rattus norvegicus, UniProt Q00960); assay: Co-IP of TRPM2 with GluN2b in co-transfected HEK293T cells; type: cell-based, human; details: 10 μM peptide overnight; IP anti-GluN2b, WB anti-Flag
T2 construct: TRPM2 plasmid a gift 17928; 17924; 17925; host or cells: HEK293T
Experimental: as §1, §2, §3

T1 sequence (Q00959 23-1464, other chains not shown): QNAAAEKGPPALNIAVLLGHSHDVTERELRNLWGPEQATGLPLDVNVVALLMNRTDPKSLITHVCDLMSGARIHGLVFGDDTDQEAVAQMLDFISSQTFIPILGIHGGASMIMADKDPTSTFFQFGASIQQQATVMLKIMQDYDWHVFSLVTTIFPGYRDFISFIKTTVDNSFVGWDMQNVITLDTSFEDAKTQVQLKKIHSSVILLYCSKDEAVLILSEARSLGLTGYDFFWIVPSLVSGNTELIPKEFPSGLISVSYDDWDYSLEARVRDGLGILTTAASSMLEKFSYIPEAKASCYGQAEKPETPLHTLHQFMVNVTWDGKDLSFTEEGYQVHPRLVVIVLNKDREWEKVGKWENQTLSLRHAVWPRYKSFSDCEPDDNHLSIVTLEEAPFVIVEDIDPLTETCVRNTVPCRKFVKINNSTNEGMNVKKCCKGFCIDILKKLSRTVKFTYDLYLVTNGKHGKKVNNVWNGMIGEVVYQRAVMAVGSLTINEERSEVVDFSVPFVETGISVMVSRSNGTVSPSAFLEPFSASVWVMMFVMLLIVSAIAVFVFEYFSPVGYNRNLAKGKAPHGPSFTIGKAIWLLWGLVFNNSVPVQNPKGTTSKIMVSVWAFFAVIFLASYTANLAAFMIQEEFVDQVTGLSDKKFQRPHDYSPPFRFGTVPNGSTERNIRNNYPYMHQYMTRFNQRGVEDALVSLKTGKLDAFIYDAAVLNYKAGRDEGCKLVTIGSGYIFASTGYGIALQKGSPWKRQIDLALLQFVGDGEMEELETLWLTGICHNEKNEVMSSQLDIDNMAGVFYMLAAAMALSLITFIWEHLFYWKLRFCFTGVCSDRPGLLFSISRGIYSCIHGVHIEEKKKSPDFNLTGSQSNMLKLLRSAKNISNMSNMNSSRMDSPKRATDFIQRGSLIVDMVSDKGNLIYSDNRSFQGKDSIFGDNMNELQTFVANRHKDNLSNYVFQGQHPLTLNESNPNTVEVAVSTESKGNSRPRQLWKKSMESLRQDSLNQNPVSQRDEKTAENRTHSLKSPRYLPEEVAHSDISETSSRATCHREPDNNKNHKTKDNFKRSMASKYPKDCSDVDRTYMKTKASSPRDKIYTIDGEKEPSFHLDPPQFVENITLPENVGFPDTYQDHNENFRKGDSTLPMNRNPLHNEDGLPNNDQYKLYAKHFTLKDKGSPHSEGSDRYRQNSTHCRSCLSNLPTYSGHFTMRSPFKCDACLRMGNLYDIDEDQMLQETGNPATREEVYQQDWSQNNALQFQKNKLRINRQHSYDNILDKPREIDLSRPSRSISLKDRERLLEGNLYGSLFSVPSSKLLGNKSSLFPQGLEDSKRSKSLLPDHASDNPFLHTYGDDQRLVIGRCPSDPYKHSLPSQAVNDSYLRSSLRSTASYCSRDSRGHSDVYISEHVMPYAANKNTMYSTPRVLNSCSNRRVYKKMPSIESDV
T2 sequence (Q00960 27-1482, other chains not shown): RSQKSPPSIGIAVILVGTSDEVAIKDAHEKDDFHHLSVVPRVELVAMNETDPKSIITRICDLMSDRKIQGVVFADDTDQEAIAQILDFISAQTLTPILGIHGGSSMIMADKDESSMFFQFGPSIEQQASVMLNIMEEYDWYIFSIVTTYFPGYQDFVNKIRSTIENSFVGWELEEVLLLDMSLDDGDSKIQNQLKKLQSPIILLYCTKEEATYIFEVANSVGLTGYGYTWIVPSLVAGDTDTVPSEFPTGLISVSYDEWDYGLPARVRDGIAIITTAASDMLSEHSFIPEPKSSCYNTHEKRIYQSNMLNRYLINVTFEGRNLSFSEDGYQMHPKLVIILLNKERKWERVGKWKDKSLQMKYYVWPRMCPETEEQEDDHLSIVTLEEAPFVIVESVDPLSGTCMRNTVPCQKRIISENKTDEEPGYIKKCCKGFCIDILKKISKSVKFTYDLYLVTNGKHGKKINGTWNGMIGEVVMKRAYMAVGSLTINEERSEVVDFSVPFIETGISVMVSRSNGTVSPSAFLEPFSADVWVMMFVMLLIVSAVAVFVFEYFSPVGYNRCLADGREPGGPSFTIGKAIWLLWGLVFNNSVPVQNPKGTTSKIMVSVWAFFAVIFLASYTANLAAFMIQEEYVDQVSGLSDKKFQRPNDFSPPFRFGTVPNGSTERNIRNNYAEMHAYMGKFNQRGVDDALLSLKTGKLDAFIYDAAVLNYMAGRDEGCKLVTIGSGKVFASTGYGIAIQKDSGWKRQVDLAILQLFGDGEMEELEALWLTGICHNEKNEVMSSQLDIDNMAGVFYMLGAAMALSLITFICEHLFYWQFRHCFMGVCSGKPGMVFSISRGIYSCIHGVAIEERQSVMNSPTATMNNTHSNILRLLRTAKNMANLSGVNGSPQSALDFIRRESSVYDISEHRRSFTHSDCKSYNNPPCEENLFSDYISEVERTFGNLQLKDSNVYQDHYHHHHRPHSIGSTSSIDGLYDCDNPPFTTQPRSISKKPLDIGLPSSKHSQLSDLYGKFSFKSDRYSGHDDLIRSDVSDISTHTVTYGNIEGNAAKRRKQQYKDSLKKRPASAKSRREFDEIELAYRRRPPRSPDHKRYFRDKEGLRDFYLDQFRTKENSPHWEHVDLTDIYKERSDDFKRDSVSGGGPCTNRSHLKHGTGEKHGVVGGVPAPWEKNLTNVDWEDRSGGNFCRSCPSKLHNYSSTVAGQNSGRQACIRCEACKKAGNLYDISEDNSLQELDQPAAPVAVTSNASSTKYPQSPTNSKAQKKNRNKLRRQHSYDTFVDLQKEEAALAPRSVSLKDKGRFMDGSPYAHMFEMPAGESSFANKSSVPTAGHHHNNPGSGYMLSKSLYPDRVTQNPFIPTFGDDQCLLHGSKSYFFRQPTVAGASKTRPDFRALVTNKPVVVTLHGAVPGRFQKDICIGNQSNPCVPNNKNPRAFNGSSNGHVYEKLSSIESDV

Which “interaction of TRPM2 with GluN2a (co-IP)” value [1] does the source give for “TAT-EE3: membrane permeable disrupting peptide, sequence YGRKKRRQRRREEDTDSSEEMLALAEE (SEQ ID NO: 4)” here?
The value was “completely disrupted”.

And the “interaction of TRPM2 with GluN2b (co-IP)” value [2]?
The value was “completely disrupted”.
